In article PMC2276513:
Non-standard residues stand in square brackets, D forms with d. No end group written: not given here. *: point of attachment. Acm = CC(=O)NC*

Biological target: IGF-I receptor (human (endogenous in HT-29)) (UniProt P08069)
Sequence of UniProt P08069 (P08069 31-1367): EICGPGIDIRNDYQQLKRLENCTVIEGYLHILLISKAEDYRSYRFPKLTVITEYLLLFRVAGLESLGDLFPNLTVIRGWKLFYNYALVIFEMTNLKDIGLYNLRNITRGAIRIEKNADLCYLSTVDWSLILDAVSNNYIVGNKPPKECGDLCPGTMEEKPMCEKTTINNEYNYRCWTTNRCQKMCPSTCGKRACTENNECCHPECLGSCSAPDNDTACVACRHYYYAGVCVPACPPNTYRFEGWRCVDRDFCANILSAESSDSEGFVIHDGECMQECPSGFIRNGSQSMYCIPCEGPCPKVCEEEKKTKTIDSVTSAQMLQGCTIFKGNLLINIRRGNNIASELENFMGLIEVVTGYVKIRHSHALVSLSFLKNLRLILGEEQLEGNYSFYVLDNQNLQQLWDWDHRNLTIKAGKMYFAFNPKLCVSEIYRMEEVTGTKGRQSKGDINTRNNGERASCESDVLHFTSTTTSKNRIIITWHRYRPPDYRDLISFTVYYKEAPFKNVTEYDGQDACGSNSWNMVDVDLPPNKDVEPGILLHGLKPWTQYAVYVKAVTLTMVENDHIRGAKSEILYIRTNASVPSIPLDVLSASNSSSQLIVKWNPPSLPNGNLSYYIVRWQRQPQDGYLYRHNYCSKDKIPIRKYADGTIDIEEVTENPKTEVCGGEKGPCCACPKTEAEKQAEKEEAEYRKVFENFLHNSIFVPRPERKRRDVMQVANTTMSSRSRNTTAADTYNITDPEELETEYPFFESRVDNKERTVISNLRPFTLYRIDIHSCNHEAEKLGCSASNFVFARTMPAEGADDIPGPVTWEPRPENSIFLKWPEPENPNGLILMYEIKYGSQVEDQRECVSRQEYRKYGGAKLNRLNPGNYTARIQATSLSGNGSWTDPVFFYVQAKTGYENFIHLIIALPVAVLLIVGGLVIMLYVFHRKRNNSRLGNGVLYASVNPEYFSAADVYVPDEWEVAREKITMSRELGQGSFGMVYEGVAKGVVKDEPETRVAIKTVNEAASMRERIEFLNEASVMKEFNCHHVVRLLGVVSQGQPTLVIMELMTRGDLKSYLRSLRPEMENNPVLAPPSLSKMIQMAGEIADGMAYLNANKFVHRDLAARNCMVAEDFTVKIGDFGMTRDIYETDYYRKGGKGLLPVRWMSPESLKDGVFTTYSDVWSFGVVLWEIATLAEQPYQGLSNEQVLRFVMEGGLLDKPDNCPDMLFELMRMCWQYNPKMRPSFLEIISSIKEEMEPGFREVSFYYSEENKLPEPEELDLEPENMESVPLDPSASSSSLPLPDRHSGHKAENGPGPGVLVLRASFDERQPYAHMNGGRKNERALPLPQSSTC

B1: IGF-I D domain analogue peptide (M1557) (peptide)
peptide: [dY]C(Acm)[dA][dP][dL][dK][dP][dA][dK][dS][dA]-NH2
modifications: N-terminus assumed
SMILES: CC(=O)NCSC[C@H](NC(=O)[C@H](N)Cc1ccc(O)cc1)C(=O)N[C@H](C)C(=O)N1CCC[C@@H]1C(=O)N[C@H](CC(C)C)C(=O)N[C@H](CCCCN)C(=O)N1CCC[C@@H]1C(=O)N[C@H](C)C(=O)N[C@H](CCCCN)C(=O)N[C@H](CO)C(=O)N[C@H](C)C(N)=O
In the case of B1, the proliferation of HT-29 cells (modified Alamar Blue assay), 48 h with 0.001-1 uM M1557 in medium with 10% FBS: percent inhibition is reported as 14 to 15%.
